Reference: paper PMC11904002

Target: T1, Signal peptide peptidase (SPP), human, with a C-terminal myc-tag (human), Q8TCT9
T1 chain: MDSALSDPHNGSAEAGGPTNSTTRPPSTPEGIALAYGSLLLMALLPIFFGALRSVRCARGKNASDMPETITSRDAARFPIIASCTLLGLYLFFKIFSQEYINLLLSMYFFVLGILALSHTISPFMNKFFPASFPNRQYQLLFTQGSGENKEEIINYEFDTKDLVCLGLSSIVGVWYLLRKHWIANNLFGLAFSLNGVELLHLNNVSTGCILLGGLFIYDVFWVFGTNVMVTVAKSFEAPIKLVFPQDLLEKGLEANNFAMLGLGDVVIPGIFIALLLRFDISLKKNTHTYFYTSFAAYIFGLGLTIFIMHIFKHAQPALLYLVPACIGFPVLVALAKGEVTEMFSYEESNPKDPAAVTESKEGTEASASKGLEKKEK
Assay: SDS-PAGE and Western blot of cell lysate; lysate of transfected HEK cells (50 mM Tris/HCl pH 7.4, 150 mM NaCl, 1% Triton X-100, 0.1% SDS); SDS-PAGE with tris-glycine buffer; SPP band at the size of a dimer
Settings: remark: other sources report otherwise

B1: Signal peptide peptidase (SPP), human, with a C-terminal myc-tag, Q8TCT9-1 1-377 (enzyme)
chain: T1 chain
Q: Which stoichiometry N does the source give for B1 here?
A: Its stoichiometry N is 2.
